# Experimental data: US7745574B2, “Compounds that regulate apoptosis” (The Burnham Institute, priority 2005, dated 2010)
# Entries after “also recorded” stand apart in the source; their conditions may differ. Where no end group is shown, it is not given here. [ ]: non-standard residue; d: D form. Ahx = NCCCCCC(=O)O
# Columns and labels:
# [1] = tested on: MDA-MB435 breast carcinoma cells; experiment: MDA-MB435 tumors in SCID mice; type: in vivo
# Description: Animal studies. Female SCID mice (6-week-old) (Tacomic) were injected with 10^6 MDA-MB435 breast carcinoma cells. Tumors were palpable on day 7. On days 10 and 13, test peptides (620 μg in 50 μL PBS) were injected into the tumor areas of 5 mice. Tumor volumes (1×w^2) were determined using calipers. No weight changes were observed. Established tumors in control mice were injected with test peptides and tumor tissues were excised and sectioned after 3 days. Tissues were fixed (10% buffered formalin), then rapidly paraffin-embedded. Apoptosis was detected by the TUNEL assay.
# H460 lung cancer cells [2] = experiment: Apoptosis in H460 lung cancer cells; type: cell-based
# Description: Bcl-2 siRNAs and antisense oligonucleotides-The target siRNA SMARTpools for Bcl-2 and Bak and the siRNA oligonucleotide for Nur77 (5'-[…] NO: 67) were purchased from Dharmacon Research Inc. Target or control siRNA were transfected at a final concentration of 200 nM into cells at 40% confluency using Oligofectamine reagent (Invitrogen) according to the manufacturer's recommendations. After 48 h, cells were analyzed. Bcl-2 antisense oligonucleotide targeting Bcl-2 and negative control oligonucleotides were obtained from Calbiochem. […] The percentages of apoptotic cells were determined by counting 300 GFP-positive cells, scoring cells having nuclear fragmentation and/or chromatin condensation. Cell culture. […] HEK293T embryonic kidney cells were grown in DME medium supplemented with 10% FBS. Jurkat and Jurkat cells stably expressing Bcl-2 were kindly provided by Dr. John Reed, and they were maintained in RPMI1640 medium.
# Bcl-2 [3] = biological target: T1, Bcl-2 (Homo sapiens, UniProt P10415); experiment: Immunoprecipitation of endogenous Bcl-2 by anti-Bcl-2/BH3 antibody in treated cells; type: cell-based; design: precipitated endogenous Bcl-2 in cells treated with L-NuBCP-9-r8 or D-NuBCP-9-r8; endogenous in cells
# Target sequence in this assay (P10415 whole entry, species assumed): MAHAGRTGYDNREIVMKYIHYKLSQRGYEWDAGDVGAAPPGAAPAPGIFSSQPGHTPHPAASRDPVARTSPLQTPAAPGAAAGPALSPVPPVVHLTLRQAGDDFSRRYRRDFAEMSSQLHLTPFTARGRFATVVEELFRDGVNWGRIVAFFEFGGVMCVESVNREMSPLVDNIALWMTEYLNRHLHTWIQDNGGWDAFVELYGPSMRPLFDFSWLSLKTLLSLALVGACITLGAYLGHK
# Bcl-2 [4] = biological target: T1, Bcl-2; experiment: Bcl-2 conformational change, anti-Bcl-2/BH3 antibody staining of HEK293T cells transfected with Bcl-2; type: cell-based; design: expressed in transfected cells; host or cells: HEK293T
# Description: Such a Bcl-2 conformation is recognized by an anti-Bcl-2 antibody raised against the Bcl-2 BH3 domain. To determine whether NuBCP-9 induced a Bcl-2 conformational change, flow cytometric assays were conducted which HEK293T cells transfected with Bcl-2 were exposed to NuBCPs and subsequently stained with the anti-Bcl-2/BH3 antibody.
# Target sequence in this assay (P10415 whole entry): as the sequence (P10415 whole entry, species assumed) above
# Bcl-2 [5] = biological target: T1, Bcl-2; experiment: Competition assay of Nur77/ΔDBD binding with Bcl-2; design: expressed in transfected cells; host or cells: HEK293T
# Description: (§1) Nur77/Bcl-2 interaction assays—Reporter gene assays using NurRE-tk-CAT in CV-1 cells, and GST pull-down assay were described previously (Li, et al. 2000 Science 289:1159-1164). For the mammalian two-hybrid assays, CV-1 cells were co-transfected with pcDNA-Gal4TAD-Nur77 or pcDNA-Gal4TAD-Nur77/ΔDBD and pcDNA-Gal4 DBD-Bcl-2/ΔTM along with a luciferase reporter gene driven by four copies of the Gal-4-binding site. The cells were harvested and reporter gene activity was measured. For Co-IP assays, HEK293T cells were transiently transfected with various expression plasmids using a modified calcium phosphate precipitation method (Wu et al, 1997) in the presence of caspase inhibitors (zVAD-fmk) to prevent degradation of Nur77 protein due to apoptosis. Cells were suspended in lysis buffer (50 mM Tris-HCl, PH7.4; 150 mM NaCl; 20 mM EDTA; 1% NP-40; 1 mM PMSF; 50 μg/ml Leupeptin; […] Aprotinin; 0.1 mM Na3VO4; and 1 mM DTT). Cells extracts were cleared by incubation with the Protein A/G plus Agarose beads (Santa Cruz) and then incubated with appropriate antibody and 30 μl of Protein A or G plus Agarose beads overnight at 4° C. […] Immunoreactive products were detected by chemiluminescence with an enhanced chemiluminescence system (ECL) (Amersham).
# Target sequence in this assay (P10415 whole entry): as the sequence (P10415 whole entry, species assumed) above
# GST-Bcl-2 = biological target: T2, GST-Bcl-2 (Homo sapiens, UniProt P10415); experiment: Immunoprecipitation of purified GST-Bcl-2 by anti-Bcl-2/BH3 antibody; type: biochemical
# T2 construct: made in house
# T2 sequence (P10415 whole entry): as the sequence (P10415 whole entry, species assumed) above
# H460 lung cancer cells [6] = experiment: Apoptosis in H460 lung cancer cells; type: cell-based; settings: H460 cells; peptides conjugated with CPP, 10 μM
# Bcl-B = biological target: T3, Bcl-B (Homo sapiens, UniProt Q9HD36); experiment: Co-immunoprecipitation with myc-tagged Bcl-B in HEK293T cells; type: binding
# T3 construct: expressed in transfected cells; host or cells: HEK293T
# T3 sequence (Q9HD36 1-204): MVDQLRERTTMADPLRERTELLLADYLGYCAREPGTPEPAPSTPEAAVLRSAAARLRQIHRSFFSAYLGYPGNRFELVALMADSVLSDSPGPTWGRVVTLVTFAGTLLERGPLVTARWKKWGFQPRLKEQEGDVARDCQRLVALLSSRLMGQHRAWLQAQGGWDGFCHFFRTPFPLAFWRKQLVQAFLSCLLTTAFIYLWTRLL
# Description: (§2) Nur77 peptide binds anti-apoptotic Bcl-2 family members. Nur77-peptide binds Bcl-B, Bfl-1, and Bcl-2, but not Mcl-1 and Bcl-xL. […] The expression vector for the GFP-Nur77/489-497 fusion was transfected into HEK293T cells together with or without the indicated expression vector for myc-tagged Bcl-2 family member. Cell lysates were prepared and analyzed for interaction of Nur77/489-497 with Bcl-2 family members by co-immunoprecipitation assay using anti-Myc antibody. Immunoprecipitates were then separated on SDS/PAGE and immunoblotted using anti-GFP antibody. […] Nur77/Bcl-2 interaction assays—Reporter gene assays using NurRE-tk-CAT in CV-1 cells, and GST pull-down assay were described previously (Li, et al. 2000 Science 289:1159-1164). For the mammalian two-hybrid assays, CV-1 cells were co-transfected with pcDNA-Gal4TAD-Nur77 or pcDNA-Gal4TAD-Nur77/ΔDBD and pcDNA-Gal4 DBD-Bcl-2/ΔTM along with a luciferase reporter gene driven by four copies of the Gal-4-binding site. The cells were harvested and reporter gene activity was measured. […] Immunoreactive products were detected by chemiluminescence with an enhanced chemiluminescence system (ECL) (Amersham).
# Bfl-1 = biological target: T4, Bfl-1 (Homo sapiens, UniProt Q16548); experiment: Co-immunoprecipitation with myc-tagged Bfl-1 in HEK293T cells; type: binding
# T4 construct: expressed in transfected cells; host or cells: HEK293T
# T4 sequence (Q16548 1-175): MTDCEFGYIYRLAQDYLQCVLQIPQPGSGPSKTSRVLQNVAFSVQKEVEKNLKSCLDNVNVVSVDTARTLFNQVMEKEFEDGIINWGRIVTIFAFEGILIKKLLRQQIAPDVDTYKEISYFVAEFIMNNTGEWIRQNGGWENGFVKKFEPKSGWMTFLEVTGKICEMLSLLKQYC
# Description: as §2
# Mcl-1 = Mcl-1 (Homo sapiens, UniProt Q07820); experiment: Co-immunoprecipitation with myc-tagged Mcl-1 in HEK293T cells; type: binding
# Chain of Mcl-1 (Q07820 whole entry, species assumed): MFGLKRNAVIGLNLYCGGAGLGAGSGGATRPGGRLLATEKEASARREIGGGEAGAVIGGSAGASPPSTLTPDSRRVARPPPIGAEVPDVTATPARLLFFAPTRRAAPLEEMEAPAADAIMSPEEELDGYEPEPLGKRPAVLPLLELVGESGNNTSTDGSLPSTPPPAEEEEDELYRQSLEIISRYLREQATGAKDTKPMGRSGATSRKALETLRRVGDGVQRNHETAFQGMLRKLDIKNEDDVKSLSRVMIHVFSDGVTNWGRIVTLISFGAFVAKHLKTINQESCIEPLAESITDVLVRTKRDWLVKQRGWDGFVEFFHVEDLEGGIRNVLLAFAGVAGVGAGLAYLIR
# Description: as §2
# Bcl-XL = Bcl-XL (Homo sapiens, UniProt Q07817); experiment: Co-immunoprecipitation with myc-tagged Bcl-XL in HEK293T cells; type: binding
# Chain of Bcl-XL (Q07817 whole entry, species assumed): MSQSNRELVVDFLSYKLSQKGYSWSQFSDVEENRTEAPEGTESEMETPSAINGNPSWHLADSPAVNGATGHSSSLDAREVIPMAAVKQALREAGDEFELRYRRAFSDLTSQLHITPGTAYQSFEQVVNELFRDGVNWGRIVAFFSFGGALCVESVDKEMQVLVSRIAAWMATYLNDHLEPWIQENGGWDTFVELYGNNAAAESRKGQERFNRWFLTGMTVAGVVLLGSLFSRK
# Description: as §2
# Bcl-2 [7] = biological target: T1, Bcl-2; experiment: Co-immunoprecipitation with Bcl-2 in HEK293T cells; type: binding; design: expressed in transfected cells; host or cells: HEK293T
# Description: as §1, with “Nur77 peptide binds anti-apoptotic Bcl-2 family members. Nur77-peptide binds Bcl-B, Bfl-1, and Bcl-2, but not Mcl-1 and Bcl-xL. […] The expression vector for the GFP-Nur77/489-497 fusion was transfected into HEK293T cells together with or without the indicated expression vector for myc-tagged Bcl-2 family member. Cell lysates were prepared and analyzed for interaction of Nur77/489-497 with Bcl-2 family members by co-immunoprecipitation assay using anti-Myc antibody. Immunoprecipitates were then separated on SDS/PAGE and immunoblotted using anti-GFP antibody. […] Nur77/Bcl-2” for “Nur77/Bcl-2”
# Target sequence in this assay (P10415 whole entry): as the sequence (P10415 whole entry, species assumed) above
# [8] = Induction of apoptosis by Nur77 peptides, cell line not stated; type: cell-based
# Description: Apoptosis assays—For nuclear morphological change analysis, cells were trypsinized, washed with PBS, fixed with 3.7% paraformaldehyde, and stained with DAPI (4,6-diamidino-2-phenylindole) (50 μg/ml) to visualize the nuclei by UV-microscopy. The percentages of apoptotic cells were determined by counting 300 GFP-positive cells, scoring cells having nuclear fragmentation and/or chromatin condensation.
# mitochondria = experiment: Subcellular localization, colocalization with RFP-Mito; type: cell-based
# Description: Subcellular localization assays—Cells were seeded onto cover-slips in 6-well plates overnight, then transiently transfected with GFP-fusion expression plasmids. After 16 hours, cells were washed with PBS and fixed in 4% paraformaldehyde. […] For cyt c staining, cells were incubated with monoclonal anti-cyt c IgG (PharMingen), followed by anti-mouse IgG conjugated with Cy5 (Amersham). Fluorescent images were collected and analyzed using a MRC-1024 MP laser-scanning confocal microscope (Bio-Rad). Subcellular fractionation assays were performed as described (Li, et al. 2000 Science 289:1159-1164). Briefly, cells (1×10^7 cells) suspended in 0.5 ml hypotonic buffer (5 mM Tris-HCl, pH 7.4, 5 mM KCl, 1.5 mM MgCl2, 0.1 mM EGTA, pH 8.0, and 1 mM DTT) were homogenized and cell extracts were centrifuged at 500×g for 5 min. The resulting supernatant was centrifuged at 10,000×g for 30 min at 4° C. to obtain the HM fraction. HM fraction was resuspended in 100 μl lysis buffer (10 mM Tris, pH 7.4, 150 mM NaCl, 1% Triton X-100, 5 mM EDTA, pH 8.0) for immunoblotting analysis.
Substance,"growth of tumors ([1]; SCID mice, 620 μg injected into tumor areas on days 10 and 13, vs control NuBCP-9/AA-r8)",apoptosis of tumor cells in vivo ([1]; TUNEL assay),apoptotic function after Bcl-2 antisense oligonucleotides (H460 lung cancer cells [2]; Bcl-2 antisense oligonucleotides),"apoptotic effect after transfection of Bcl-2 siRNA (H460 lung cancer cells [2]; H460 cells, Bcl-2 siRNA vs control GFP siRNA)",precipitation of endogenous Bcl-2 by anti-Bcl-2/BH3 antibody (Bcl-2 [3]),Bcl-2 immunofluorescence by anti-Bcl-2/BH3 antibody (Bcl-2 [4]; flow cytometry),Bcl-2 staining by anti-Bcl-2/BH3 antibody (Bcl-2 [4]; fluorescence microscopy),Bcl-2 immunofluorescence in the presence of caspase inhibitor zVAD (Bcl-2 [4]; zVAD present),binding of Nur77/ΔDBD with Bcl-2 in presence of peptide (Bcl-2 [5]),precipitation of GST-Bcl-2 protein by anti-Bcl-2/BH3 antibody (GST-Bcl-2),apoptotic effect (H460 lung cancer cells [6]),interaction with Bcl-B by co-immunoprecipitation (Bcl-B),interaction with Bfl-1 by co-immunoprecipitation (Bfl-1),interaction with Mcl-1 by co-immunoprecipitation (Mcl-1),interaction with Bcl-XL by co-immunoprecipitation (Bcl-XL),interaction with Bcl-2 by co-immunoprecipitation (Bcl-2 [7]),induction of apoptosis [8],colocalization with RFP-Mito (mitochondria)
acetyl------------FSRSLHSLLGXrrrrrrrr-amide (Ac-FSRSLHSLLG[Ahx][dR][dR][dR][dR][dR][dR][dR][dR]-NH2; SMILES CC(=O)N[C@@H](Cc1ccccc1)C(=O)N[C@@H](CO)C(=O)N[C@@H](CCCNC(=N)N)C(=O)N[C@@H](CO)C(=O)N[C@@H](CC(C)C)C(=O)N[C@@H](Cc1c[nH]cn1)C(=O)N[C@@H](CO)C(=O)N[C@@H](CC(C)C)C(=O)N[C@@H](CC(C)C)C(=O)NCC(=O)NCCCCCC(=O)N[C@H](CCCNC(=N)N)C(=O)N[C@H](CCCNC(=N)N)C(=O)N[C@H](CCCNC(=N)N)C(=O)N[C@H](CCCNC(=N)N)C(=O)N[C@H](CCCNC(=N)N)C(=O)N[C@H](CCCNC(=N)N)C(=O)N[C@H](CCCNC(=N)N)C(=O)N[C@H](CCCNC(=N)N)C(N)=O) [NuBCP-9-r8],dramatically suppressed,potently induced,attenuated,inhibited,precipitated,strong Bcl-2 immunofluorescence,strongly stained,observed,abrogated,strong precipitation,potently induce apoptosis,–,–,–,–,–,–,–
GFP-Nur77/489-497: NuBCP-9 (Nur77/489-497) sequence cloned as a green fluorescence protein (GFP) fusion (FSRSLHSLL; also: fused to GFP),–,–,–,–,–,–,–,–,–,–,–,interacts,interacts,not,not,precipitated by anti-Bcl-2 antibody only when Bcl-2 was co-expressed; also recorded: interacts,apoptotic,colocalized extensively
